The source of these data is article PMC5769749.

The target in this assay is NC-RLuc (HIV-1 nucleocapsid fused to Renilla luciferase), expressed in HeLa cells (HIV-1). Put plainly: proximity ligation.

Substance “Staufen1-YFP (from UniProt O95793-2 1-496) (natural protein)” had a PLA spots per cell (spots per cell) of 103.
